One data set relates to neurospheres. Put plainly: Cytotoxicity observed in neurosphere cultures. It counts as cell-based, mouse. Conditions: neurosphere experiments. From the text:
Under growth conditions, neurospheres readily stained for nestin, an intermediate protein highly expressed in early neuronal progenitors (Lendahl et al., Cell 60, 585-595). […] Subsequently, we compared neural differentiation without caspase 3 activity. […] Increased expression of GFAP, MBP are characteristic with the early formation of astrocytes and oligodendrocytes respectively (Gage, F. H. (2000) Science 287, 1433-1438).

The subject of data set [1] is caspase-3-/- primary myoblasts. The data set is described as follows: Transfection of MST1 constructs into caspase-3-/- primary myoblasts (rescue of myogenesis). It counts as cell-based, mouse. On the procedure: (§1) Myoblast culture. C2C12 cell (mouse skeletal muscle myoblast) cultures were grown and maintained in DMEM containing 10% FBS with 50 units/ml penicillin and 50 μg/ml streptomycin (Gibco). Differentiation was induced by incubating cultures in DMEM containing only a low serum concentration (2% horse serum). Caspase activity was measured using a Caspase-3 and Caspase-8 Fluorometric Assay Kit (Pharmingen). […] Control cells were treated with an equivalent amount of vehicle (DMSO). Primary myoblast cells were derived from skeletal muscles of the hind- and fore-limbs from 1-2 day old C57BL/6 wild-type, caspase-3 heterozygous and caspase-3 null mice (Frasch, S. C., et al., (1998) J. Biol. Chem. 273, 8389-8397; Kuida, K., et al., (1996) Nature 384, 368-372) (n=5 for each genotype) as described (Cregan, S. P. et al., (1999) J. Neuro. 19, 7860-7869.). To induce differentiation, primary myoblast cultures were incubated in DMEM containing 5% horse serum.
(§2) Transfection Assays. The complete open reading frame of the human MST1, [Genbank Accession No. gi|1117790] obtained from a clone bank collection (Stratagene) was inserted into the expression vector pcDNA3.1 Myc/His (Invitrogen). A constitutively active MST1 (MST1-act) was prepared as previously described (Megeney, L. A., et al., (1996) Genes Dev 10, 1173-1183). The integrity of both MST1 and MST1-act were confirmed by sequencing. The kinase activity of these protein products were verified by transient transfection into COS1 cells followed by immunoprecipitation and kinase analysis using Histone-H1 as the target substrate (see below). Transfections with MST1 and MST1-act into both COS1 and primary myoblasts were performed using Lipofectamine Plus (Gibco) as directed in the manufacturer's instructions.
To delineate the effect of MST1 on myogenesis, wild-type MST1, an activated MST1 (aa 1-330, MST1-act) or plasmid alone was transiently transfected into primary myoblasts derived from caspase-3^−/− mice. The activity of these constructs was verified by Histone H1 targeted kinase analysis of MST1 from transiently transfected COS1 cells (FIG. 5A).

A further data set relates to Histone H1. Put plainly: Histone H1 targeted kinase assay of MST1 constructs immunoprecipitated from transfected COS1 cells. Particulars: transiently transfected COS1 cells, Histone H1 substrate. It counts as biochemical. How it is done:
as §2
Co-immunoprecipitation and kinase analyses. Immunoprecipitation was performed using 150-200 μg of total protein, incubated in modified-RIPA buffer at 4° C. for 16 h containing the respective antibody. Samples were mixed for 1 h with 25 μl of a 50% Protein G (Pharmacia). For co-immunoprecipitation, immunoprecipitates were washed in modified-RIPA buffer, boiled in 1× Lamelli buffer, separated by SDS-PAGE and Western blotted for immunoblot analyses. […] Following SDS-PAGE, gels were dried and phospho-incorporation was analyzed by autoradiography. […]

For data set [2], the system named is wildtype primary myoblasts. Put plainly: Transfection of MST1-act into wildtype primary myoblasts. It counts as cell-based, mouse. On the procedure:
as §1
Transfection Assays. The complete open reading frame of the human MST1, [Genbank Accession No. gi|1117790] obtained from a clone bank collection (Stratagene) was inserted into the expression vector pcDNA3.1 Myc/His (Invitrogen). A constitutively active MST1 (MST1-act) was prepared as previously described (Megeney, L. A., et al., (1996) Genes Dev 10, 1173-1183). The integrity of both MST1 and MST1-act were confirmed by sequencing. […]

Entries after “also recorded” stand apart in the source; their conditions may differ.

With `CC(=O)N[C@@H](CC(=O)O)C(=O)N[C@@H](CCC(=O)O)C(=O)N[C@H](C(=O)N[C@H](C=O)CC(=O)O)C(C)C` [Ac-DEVD-CHO], the cytotoxicity entry in the data set with neurospheres is recorded as “high levels of cytotoxicity”.

B1: MST1-act: constitutively active MST1 (aa 1-330) expressed from pcDNA3.1 Myc/His by transfection (protein, UniProt Q13043 1-330, looked up, fragment)
chain: METVQLRNPPRRQLKKLDEDSLTKQPEEVFDVLEKLGEGSYGSVYKAIHKETGQIVAIKQVPVESDLQEIIKEISIMQQCDSPHVVKYYGSYFKNTDLWIVMEYCGAGSVSDIIRLRNKTLTEDEIATILQSTLKGLEYLHFMRKIHRDIKAGNILLNTEGHAKLADFGVAGQLTDTMAKRNTVIGTPFWMAPEVIQEIGYNCVADIWSLGITAIEMAEGKPPYADIHPMRAIFMIPTNPPPTFRKPELWSDNFTDFVKQCLVKSPEQRATATQLLQHPFVRSAKGVSILRDLINEAMDVKLKRQESQQREVDQDDEENSEEDEMDSGTM
modifications: Myc/His tag
For the molecule B1, in data set [1] (caspase-3 knockout myoblasts containing construct), the efficiency of differentiation is more than 85%. Besides, in data set [1] (transient transfection, primary caspase-3-/- myoblasts), the “myotube formation in caspase-3-/- myoblasts” value was “elongated and fused with neighbouring cells to form multinucleated myotubes; also recorded: differentiated to form fused, multinucleated myotubes”. In addition, in the data set on Histone H1, the “kinase activity of construct” value is “high level of kinase activity”. Also, in data set [2] (2 days in differentiation media, vs untransfected wildtype), the “myogenesis in wildtype myoblasts” value was “comparable to wildtype cultures after 4-5 days of differentiation; also recorded: accelerated myogenesis after 2 days”. In addition, in data set [2] (differentiation time course >4 days), the “apoptosis on protracted differentiation” value is “enhanced apoptosis”.
